Patent publication US6355481B1, “Hybridoma cell line and monoclonal antibody for huntingtin protein” (Emory University, priority 1999, dated 2002)

B1: HAP1-A: huntingtin-associated protein isoform expressed from cloned cDNA in pCIS vector transfected into PC12 cells (protein)
chain: MRPKDQVQSSAGDGTGSGDPATGTPTTQPAADPAPEPSAEPKPAPAQGTGSGQKSGSRTKTGGSFCRSRIRGDSDAPWTRYIFQGPYGPRATGLGTGRAEGIWKTPAAYIGRRPGVSGPERAAFIRELQEALCPNPLPRKKITEDDIKVMLYLLEEKERDLNTAARIGQSLVKQNSVLMEENNKLETMLGSAREEILHLRKQVNLRDDLLQLYSDSDDDEEDEEDEEEEEGEEEEREGQRDQDQQHDHPYGAPKPPPKAETLHHCPQLEALKQKLKLLEEENDHLREEASHLDNLEDKEQMLILECVEQFSEASQQMAELSEVLVLRLEGYERQQKEITQLQAEITKLQQRCQSYGAQTEKLQQQLASEKGVHPESLRAGSHMQDYGSRPRERQEDGKSHRQRSSMPAGSVTHYGYSVPLDALPSFPETLAEELRTSLRKFITDPAYFMERCDTRCREERKKEQGTMPPPPVQDLKPPEDFEAPEELVPEEELGAIEEVGTAEDGPAEETEQASEETEAWEEVEPEVDEATRMNVVVSALEASGLGPSHLDMKYVLQQLSNWQDAHSKRQQKQKVVPKGECSRRGHPPASGTSYRSSTL
B2: HD-23Q: N-terminal region of human huntingtin (amino acids 1-253) with 23 glutamines, expression construct (protein)
chain: MATLEKLMKAFESLKSFQQQQQQQQQQQQQQQQQQQQQPPPPPPPPPPPQLPQPPPQAQPLLPQPQPPPPPPPPPPGPAVAEEPLHRPKKELSATKKDRVNHCLTICENIVAQSVRNSPEFQKLLGIAMELFLLCSDDAESDVRMVADECLNKVIKALMDSNLPRLQLELYKEIKKNGAPRSLRAALWRFAELAHLVRPQKCRPYLVNLLPCLTRTSKRPEESVQETLAAAVPKIMASFGNFANDNEIKVLLK
B3: CNTF: ciliary neurotrophic factor (protein, UniProt P26441 1-200, looked up)
Ciliary neurotrophic factor: MAFTEHSPLTPHRRDLCSRSIWLARKIRSDLTALTESYVKHQGLNKNINLDSADGMPVASTDQWSELTEAERLQENLQAYRTFHVLLARLLEDQQVHFTPTEGDFHQAIHTLLLQVAAFAYQIEELMILLEYKIPRNEADGMPINVGDGGLFEKKLWGLKVLQELSQWTVRSIHDLRFISSHQTGIPARGSHYIANNKKM

Legend:
[1] = system: PC12 cells; experiment: Transfection of PC12 cells, immunofluorescence: neurites and perinuclear inclusions; assay type: cell-based, rat; settings: for transfected cells with neurites: neurites exceeding two body diameters, vector alone 4.7%
Procedure: cDNA constructs and transfection of cells. Cloned HAP1-A and HAP1-B cDNAs were inserted into the expression vector pCIS (Li et al., 1995) carrying the cytomegalovirus promoter. The expression constructs encoding N-terminal human huntingtin (253 amino acids) with 23, 73, or 120 glutamines were obtained in a previous study (Li and Li, 1998). PC12 cells were plated onto two-well chamber slides at a density of 50,000/cm^2 and cultured for 24 h. Two micrograms of plasmid DNA was then added to each well in a 1-ml solution containing Lipofectamine (10 μg/ml), yielding 3-8% transfected cells. Following 18-24 h transfection, the media were replaced with fresh growth media and the cells were grown for another 24 h before immunofluorescent staining. The immunostaining images were captured using a 3CCD camera video system. Neurite length was measured as cell body diameters. The average sizes (μm) of perinuclcar huntingtin inclusions were obtained by measuring the diameters of inclusions in 58-112 cells transfected with huntingtin alone. The percentage of transfected cells with neurites that exceeded two body diameters was obtained by counting 200-300 transfected cells in three independent experiments. For double transfection, equal amounts (2 μg for each) of HAP1-A and huntingtin cDNAs were transfected into PC12 cells in each well of six-well dishes. The transfected cells were immunostained with the rabbit polyclonal antibody for HAP1-A and mouse monoclonal antibody for huntingtin.

[2] = system: parental PC12 cells; experiment: Neurite outgrowth assay, parental PC12 cells; assay type: cell-based, rat; settings: control/parental PC12 cells; IL-6 20 ng/ml, CNTF 20 ng/ml, EGF 10 ng/ml, bFGF 20 ng/ml
Procedure: To evaluate neurite outgrowth, we plated the cells at low density (2×10^4 Cells/cm^2) onto six-well plates. Cell cultures were treated with NGF (100 ng/ml) for 48 hr or with staurosporine (50-100 nM) and EGF (10 ng/ml) for 16 hr and were fixed with 4% paraformaldehyde in PBS for 15 min. After several washes with PBS, cells with neurites exceeding the cell diameter were counted using an inverted microscope (Olympus Optical CK2, Tokyo, Japan). At the same time, five to seven images (10×) were captured by a Pixera camera, and the percentage of cells with neurites was confirmed by analyzing these images. On average, 500-800 cells were counted for each group.

| Molecule | length of the neurites ([1]; single transfection) [body diameters] | transfected cells with neurites ([1]; single transfection) [%] | cells with elongated neurites ([1]; double transfection with HAP1-A, HAP1-A alone 29.4%) [%] | neurite outgrowth promoted by growth factor [2] |
| --- | --- | --- | --- | --- |
| B1 | 3.8 | 29.4 | – | – |
| B2 | – | 5.1 | 24.6 | – |
| B3 | – | – | – | did not promote neurite outgrowth |
